This note sets out measurements from the supplement of paper PMC12042874.

The series can be described thus: amyloid nucleation score (Sup35N fusion, yeast selection) (log enrichment); library NNK2; higher = more nucleation; inactive = no reads after selection. In short, it runs like this:
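Growth for 7 days at 30°C on medium lacking adenine and uracil followed a 24-hour induction with 100 μM copper sulfate of psi-negative yeast expressing peptides of 20 random codons fused to Sup35N. Input and output plasmid inserts were sequenced with Illumina, and sequences with under 100 input reads were excluded. Nucleation score is the DiMSum log enrichment of output over input reads, centred on the mode score of non-aggregating sequences.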

± gives the uncertainty stated by the source.

As to WYFIGKCRDGVSDGMRNNVR, the amyloid nucleation score amounted to 0.148 ± 0.22.

LNTNPARYLPGMFNPRSKYL: the amyloid nucleation score was -0.324 ± 1.1. To VSENDGVRACCLS belongs 0.474 ± 0.44; to EHRSVRDLKRMQCEIYSRGV, 0.191 ± 0.8; to HGTNTRADYFCIYPHGNG, -0.281 ± 0.37. As for LCFFT, the figure is 0.383 ± 0.74.

With CNLSVVYLLDMAD, the amyloid nucleation score is 3.99 ± 0.044. To SILALTE belongs -0.072 ± 1.1; to FSVRGRWAHLWMK, 0.443 ± 0.42. As for LLFVLAKGNKTCSTPCIEIH, the figure is -0.628 ± 0.27; as for GIIDV, -0.441 ± 1.1; as for YYMVSP, -0.093 ± 0.33. To HIIIFLWYRRHFSS belongs 1.78 ± 0.22. Substance TWTHCIGSLIR displayed an amyloid nucleation score of -0.855 ± 0.76. As for NVSSSLPF, the figure is -0.424 ± 0.78. As for LIKVVVMS, the amyloid nucleation score was 1.04 ± 0.42. To FTSFCMMKGPGLY belongs -1.44 ± 1.1; to TAFVSHL, -0.288 ± 1.1. As to LEMCVLR, the amyloid nucleation score stood at 0.23 ± 0.45. As for GWQGISAVSRGTGCWLEGTG, the figure is 0.649 ± 0.34.

The substance LHKISIGKCSRCSCRNTFGE yielded an amyloid nucleation score of -0.171 ± 1. To SWLYIQFFNLVLKTIVGLGV belongs 0.026 ± 1.1. As for SARHDSRVYNWGLFMKYDVN, the figure is 4.12 ± 0.084; as for KSICARVFTIQMRNVSVQSS, 0.158 ± 0.43; as for NWCWYHANRLGCFGASCHVV, 4.52 ± 0.071.

The substance NIAMSDMDILLMQRAQKWLR displayed an amyloid nucleation score of 1.1 ± 0.54. As for TWGGFRY, the figure is 1.76 ± 0.48; as for GNLLLSVITDQL, 4.69 ± 0.072; as for IKNSRNVLLMPLLANHWHNS, -0.58 ± 0.63. As for LFMPGSFFDIFE, the figure is -2.05 ± 0.78; as for CSNYQRYTILVYPTRSYGCL, 0.558 ± 0.6.

LAGYNFLKETRDMVTIMAYE: the amyloid nucleation score result was “inactive”. As for SRKLRLVRGFWG, the figure is -0.067 ± 0.62; as for TTRIS, “inactive”. To SLDCPGFGRAYV belongs 1.62 ± 0.16; to VMVCGTFANKLRLPVSIELT, 0.534 ± 0.28; to SITMFQCQRVCASLQYVTGT, 6.968 ± 0.063. As for LRVVIHPVRNAGCLGKYGAN, the figure is -0.509 ± 0.33. The substance TYFYSWYGKYPADSRFY had an amyloid nucleation score of -0.488 ± 1.

In the case of LAPVYEFEVWIHGIRGRCAW, the amyloid nucleation score turned out to be 4.18 ± 0.065. To KILNCTGSQVKS belongs -0.032 ± 0.25; to TAGSTSSEADISLF, 4.02 ± 0.13. To MWISFFCRRYSNIWTGFGYM belongs -1.09 ± 1; to LDLALSQH, 1.54 ± 0.53; to TSYSTPRMGPLTPRLSSG, 0.388 ± 0.25. Turning to YSPLLTLWKIGRIWIAFMIA, the amyloid nucleation score is 0.148 ± 1. With LYVTQTS, the amyloid nucleation score is -0.053 ± 0.35. To IWYESWEQHGKDVQVPMVTD belongs 0.623 ± 0.22; to HDKAHLRTCVVFRLESSGG, 4.29 ± 0.085.

In turn, GASVVDKSSRPCGAILEHSG displayed an amyloid nucleation score of 0.894 ± 0.74. LLPSHISASNHIWWLKTS: the amyloid nucleation score came out at 0.307 ± 0.31. To RFMVTTAGRVLPLLSMRGWA belongs 4.68 ± 0.061; to MEWKSGL, 0.534 ± 0.64; to WCHTGKRINFPFICFLWFWC, “inactive”. To ITGKTGVCSNNYTLKILGIV belongs -0.826 ± 0.33. As for LSNWSPFYMLHQSISFCSRS, the figure is 3.08 ± 0.051; as for CKKKSRTDCMLSFCVCFDGV, 7.276 ± 0.035; as for SKTLAGIWSDGVHAEFDIKG, -0.573 ± 0.79. KFCSRVFSQCMSYLSCLLDF: the amyloid nucleation score was 0.17 ± 0.74. As for SMLESNFRGFFYQ, the figure is 2.56 ± 0.15; as for VRTNDKYQEVFPSVYYNLGN, -0.944 ± 1.1; as for WFYLCMFGAYLWRVRFDIRK, -0.428 ± 0.34. For HRASRMCGINLARPTVMVVT, the amyloid nucleation score is 1.9 ± 0.12.

In turn, IYRDPHNYCM showed an amyloid nucleation score of -0.751 ± 1.1. To SGSGSTAILGKTSGHVCLAI belongs 0.713 ± 0.58. As for SLGSSWCNSDLLAL, the figure is -0.311 ± 1.1.

The substance IHCRCVADCSRS showed an amyloid nucleation score of -0.097 ± 0.76. As for YQNIVIRLLVLCYNVTDGLV, the figure is 3.02 ± 0.14; as for FIPEERDIWGYAPGNCIFFR, -1.77 ± 0.54. As for FVKGS, the entry is “inactive”; as for ILANCGCCSNFSFYQMGEKY, 8.279 ± 0.047. The substance GFLLCVSGVYLGCLLVNSSI registered an amyloid nucleation score of 0.488 ± 0.56. As for YRKAGSSQTGNFLLLLLDGG, the figure is 0.067 ± 0.63. To LIVGAIASLHHTLQVNGSPN belongs 4.59 ± 0.11; to SCAHCCHRKVLR, 0.53 ± 0.3; to YFCSLDSMPQSSVFDYLSAL, -0.43 ± 1.1. To WLVFQFYVRGRREMVS belongs 1.4 ± 0.2; to SEYVCSCYFSGLLNKLRLVE, 0.356 ± 0.43; to TNTCFFSNGGRTSKWHPVLV, 0.135 ± 0.56. The substance RLRVVEPGNACWGQMLG had an amyloid nucleation score of 0.165 ± 1. To EEKEVDVEVGRETHMSARDN belongs 0.563 ± 0.15; to LCRNSSVFRCSGK, 0.311 ± 0.17. To YLQLRMLTVMGCLRLCTSMP belongs 0.386 ± 0.34; to SELFQLIGILHSNLFGIYMF, -0.427 ± 0.74. As for PCIFFMRFYFRT, the figure is -0.078 ± 0.65; as for NNINLTYRLYSVLDHYKLYE, 2.66 ± 0.088. For the substance VFIVMYSKFLKHVYGTTLTN, the amyloid nucleation score entry is “inactive”.

The substance ATFVIY had an amyloid nucleation score of -0.603 ± 1.

Regarding VLPGKVRPFCGSMCNSFFSL, the amyloid nucleation score stood at 0.157 ± 1.

Turning to MKLYSISELLFKFLLHSLCA, the amyloid nucleation score result was “inactive”.

For the substance EILTNQYFCRLWVMGTFYID, the amyloid nucleation score is -1.19 ± 1. As for ELAHQNENFRGRRFVAQ, the figure is -0.038 ± 1.1; as for DAFWLWSFIWACVLCFTKHR, -0.549 ± 0.45; as for FISTGRHTICDIVAHNADLF, -0.305 ± 0.8.

Consider VLDAHLY, for which the amyloid nucleation score result is “inactive”. In turn, ACVWNDIEGMNTFTVNSFFL gave an amyloid nucleation score of 3.39 ± 0.16. As for DDCKQRTHNDYMD, the figure is 0.175 ± 0.37; as for NISGV, -0.644 ± 0.76. To RALVYVWACSVLLDNCTSRH belongs -0.935 ± 1.1; to KLGWTRLTPNVAHFHLIVGL, 0.583 ± 0.4. To DTWTYVAWFLYIIICSRQTE belongs -0.623 ± 0.35; to LSYPTVYLATLVYFLQMWAV, -0.285 ± 0.37; to SGIHEIFESVFFNTYFRRMT, -0.549 ± 1. The substance VQDQNRREAEVSSKGGTCSW gave an amyloid nucleation score of -0.42 ± 0.35. To YAQWYDCTSSAEKRYKKVLS belongs -0.473 ± 0.31. As to MKGNGCNIFRQGTWRDSFAD, the amyloid nucleation score was -0.715 ± 0.41. To LINVMLS belongs “inactive”.

Substance WESRLLEYLCTDVNTME registered an amyloid nucleation score of -0.553 ± 0.48.

YRVWWSVIYVKWVG had an amyloid nucleation score of -0.618 ± 1.1. To CLLLLCNPRISAE belongs -0.582 ± 0.76. To FITEDLVRAFANYVND belongs “inactive”; to HTSFIMYMYHSRIWHGMYQT, “inactive”; to RRSDKLAVLWYSDKRMARWS, -0.582 ± 0.33.

Substance SSYTLGFFRCNRFWCLCIDC came in with an amyloid nucleation score of -1.2 ± 0.56. To RISRFCL belongs 1.52 ± 0.26; to FSRTTAHMTLDMYFTGRDGY, 5.79 ± 0.058. As for KTREFNEQIVYGASVYVYQG, the figure is 0.672 ± 0.43. In the case of MGVLEGLSWVSRNKISGVLQ, the amyloid nucleation score was -0.191 ± 0.55. Consider AVVIWAKML, for which the amyloid nucleation score was 0.372 ± 0.27. As for CSMKYGCRVYVRNPSLSECD, the figure is 0.547 ± 0.45; as for RMDGNLQGHDDCVNV, 0.773 ± 0.29. As for EQKGSVTYCGYKMSDV, the figure is 4.97 ± 0.062; as for YSFGVQC, 0.067 ± 0.25; as for DIPLSSAKAYI, 0.443 ± 0.8.

The substance IVSSGPIKLNTSCFRTAYML yielded an amyloid nucleation score of -0.854 ± 0.63. To QWRINSRLFG belongs -0.266 ± 0.22; to CLNPFDSYGTSYCKCWWSAT, -0.451 ± 0.33; to YVITSSPSLYACICSGVSVR, 4.87 ± 0.1. As for GEGQNEVATHLYCQLAILPV, the figure is 0.28 ± 0.46; as for LICSHTLIRVYVKFF, 1.16 ± 0.3. As for IEGREGCARDNKGYYTALLL, the entry is “inactive”. Turning to FGNFLLSITII, the amyloid nucleation score was found to be 2.4 ± 0.062. As for VGGYDNLSILISTLQSSIFS, the figure is -0.779 ± 0.37; as for CDLFGSCVDIWDTYINLSDR, -0.573 ± 1.1. To NQWDPMFDRIPTMAALAGPG belongs 3.4 ± 0.1; to TFWTANISSADTSSFFY, 0.272 ± 0.34; to MGDTRNGYFSRMLFYTDCPW, 0.037 ± 0.43. As for IFCWL, the figure is 3.51 ± 0.047; as for LRVMSVRYSICVKYNVEFRL, 1.18 ± 0.21. Turning to TDANESDR, the amyloid nucleation score is 0.905 ± 0.36.

As for AWHIPLTCGLHVIFLGR, the amyloid nucleation score result was “inactive”.
